This note sets out measurements from publication PMC9182133, “Cholesterol Dependent Activity of the Adenosine A2A Receptor Is Modulated via the Cholesterol Consensus Motif” (Molecules, 2022).

Test [1] has as its target T1, wild-type human adenosine A2A receptor with rho-1d4 tag (pITy4-A2AR-1d4) (human, UniProt P29274 1-412).
T1 construct: adenosine A2A receptor, human, wild type; the abstract calls it full length; also called WT A2AR; source: S. cerevisiae BJ5464 (pITy4, galactose induced), purified (Rho-1d4 resin, eluted with Rho-1d4 peptide) in DDM/CHAPS/CHS
The test is described as follows: SPR; His6-Gαs (1 µM injected) captured on a high-capacity Ni-NTA chip; purified receptor injected at 296 (legend: 267), 445 or 667 nM for 3 min, dissociation 5 min; 20 °C, 25 µL/min; 50 mM Tris-HCl pH 8, 0.1% DDM, 0.1% CHAPS, 0.02% CHS; channel with denatured Gαs subtracted; 1-1 binding model, fits of three biological replicates averaged. The following applies: both partners purified. On the technique in general: Surface plasmon resonance follows binding to a sensor surface in real time, without labels.

Test [2] concerns the target T2, A2AR S47A variant with rho-1d4 tag (human, UniProt P29274 1-412, S47A).
T2 construct: adenosine A2A receptor, human, with S47A (Ballesteros-Weinstein 2.45) in the cholesterol consensus motif; source: S. cerevisiae BJ5464 (pITy4, galactose induced), purified (Rho-1d4 resin, eluted with Rho-1d4 peptide) in DDM/CHAPS/CHS
The description is as above. The following applies: both partners purified.

T2 sequence (P29274 whole entry S47A): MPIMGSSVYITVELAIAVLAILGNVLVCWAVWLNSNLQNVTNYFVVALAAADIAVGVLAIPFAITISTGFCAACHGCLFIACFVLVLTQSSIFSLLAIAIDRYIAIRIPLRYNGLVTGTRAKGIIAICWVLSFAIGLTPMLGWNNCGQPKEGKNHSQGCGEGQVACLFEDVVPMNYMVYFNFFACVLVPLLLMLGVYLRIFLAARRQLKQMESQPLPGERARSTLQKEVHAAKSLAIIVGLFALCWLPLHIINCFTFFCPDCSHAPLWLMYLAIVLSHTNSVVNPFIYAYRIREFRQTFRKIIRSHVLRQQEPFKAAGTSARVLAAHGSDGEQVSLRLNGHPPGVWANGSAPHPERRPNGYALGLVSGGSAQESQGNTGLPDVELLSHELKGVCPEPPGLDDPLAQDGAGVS
T1 sequence (P29274 whole entry): as the sequence (P29274 whole entry S47A) above, with A47S counted along it

B1: Gαs protein (pET15b-Gαs, His6 tagged) (natural protein, UniProt P63092 1-394, looked up)
chain: MGCLGNSKTEDQRNEEKAQREANKKIEKQLQKDKQVYRATHRLLLLGAGESGKSTIVKQMRILHVNGFNGEGGEEDPQAARSNSDGEKATKVQDIKNNLKEAIETIVAAMSNLVPPVELANPENQFRVDYILSVMNVPDFDFPPEFYEHAKALWEDEGVRACYERSNEYQLIDCAQYFLDKIDVIKQADYVPSDQDLLRCRVLTSGIFETKFQVDKVNFHMFDVGGQRDERRKWIQCFNDVTAIIFVVASSSYNMVIREDNQTNRLQEALNLFKSIWNNRWLRTISVILFLNKQDLLAEKVLAGKSKIEDYFPEFARYTTPEDATPEPGEDPRVTRAKYFIRDEFLRISTASGDGRHYCYPHFTCAVDTENIRRVFNDCRDIIQRMHLRQYELL
notes: G protein alpha-s subunit; also called G protein; source: E. coli Rosetta (DE3), purified (Ni-NTA resin)
The Kd is the equilibrium constant for the complex coming apart. High values mean lower affinity, low ones higher affinity. The koff is the first-order rate constant of dissociation. A higher koff goes with fast dissociation. One may read the kon as the rate constant with which the complex forms. A low value points to slow association. B1: in test [1], the Kd was found to be 74 nM, the koff was 0.00066 s⁻¹ and the kon turned out to be 12700 ± 649 M⁻¹ s⁻¹. Also, in test [2], the Kd was determined as 146 nM, the koff amounted to 0.00122 s⁻¹ and the kon came to 18700 ± 2900 M⁻¹ s⁻¹.
